Experiments:
[1] = biological target: native cell surface receptor on R-SMC; assay: cell-based or functional assay
[2] = biological target: T1, human αvβ3 receptor protein purified from human placenta (human, UniProt P06756 31-1048; P05106 27-788); assay: BIAcore, receptor immobilized in a hybrid bilayer membrane, mAb in solution
T1 construct: mature; Detergent-solubilised whole heterodimer from tissue; coated on plates (ELISA), inserted in a hybrid bilayer membrane or passed in solution (BIAcore); also called vitronectin receptor; αβ3 receptor
Protocol: (§1) The receptors was immobilized by inserting it into a phospholipid vesicle and producing a hybrid bilayer membrane on a hydrophobic sensor surface. […] Samples of the mAb were passed over this surface and the rates at which they bound and then dissociated from the surface were measured and analyzed using software provided with the instrument.

[3] = biological target: T1, human αvβ3 receptor protein purified …; assay: BIAcore, receptor immobilized in a hybrid bilayer membrane, mAb in solution (100, 25, 6 nM)
Protocol: as §1

[4] = biological target: T2, human αvβ5 receptor protein purified from human placenta (human, UniProt P06756 31-1048; P18084 24-799); assay: as above
T2 construct: mature; Detergent-solubilised whole heterodimer from tissue
T2 sequence (P06756 31-1048, form in doubt, chain 1 of 2): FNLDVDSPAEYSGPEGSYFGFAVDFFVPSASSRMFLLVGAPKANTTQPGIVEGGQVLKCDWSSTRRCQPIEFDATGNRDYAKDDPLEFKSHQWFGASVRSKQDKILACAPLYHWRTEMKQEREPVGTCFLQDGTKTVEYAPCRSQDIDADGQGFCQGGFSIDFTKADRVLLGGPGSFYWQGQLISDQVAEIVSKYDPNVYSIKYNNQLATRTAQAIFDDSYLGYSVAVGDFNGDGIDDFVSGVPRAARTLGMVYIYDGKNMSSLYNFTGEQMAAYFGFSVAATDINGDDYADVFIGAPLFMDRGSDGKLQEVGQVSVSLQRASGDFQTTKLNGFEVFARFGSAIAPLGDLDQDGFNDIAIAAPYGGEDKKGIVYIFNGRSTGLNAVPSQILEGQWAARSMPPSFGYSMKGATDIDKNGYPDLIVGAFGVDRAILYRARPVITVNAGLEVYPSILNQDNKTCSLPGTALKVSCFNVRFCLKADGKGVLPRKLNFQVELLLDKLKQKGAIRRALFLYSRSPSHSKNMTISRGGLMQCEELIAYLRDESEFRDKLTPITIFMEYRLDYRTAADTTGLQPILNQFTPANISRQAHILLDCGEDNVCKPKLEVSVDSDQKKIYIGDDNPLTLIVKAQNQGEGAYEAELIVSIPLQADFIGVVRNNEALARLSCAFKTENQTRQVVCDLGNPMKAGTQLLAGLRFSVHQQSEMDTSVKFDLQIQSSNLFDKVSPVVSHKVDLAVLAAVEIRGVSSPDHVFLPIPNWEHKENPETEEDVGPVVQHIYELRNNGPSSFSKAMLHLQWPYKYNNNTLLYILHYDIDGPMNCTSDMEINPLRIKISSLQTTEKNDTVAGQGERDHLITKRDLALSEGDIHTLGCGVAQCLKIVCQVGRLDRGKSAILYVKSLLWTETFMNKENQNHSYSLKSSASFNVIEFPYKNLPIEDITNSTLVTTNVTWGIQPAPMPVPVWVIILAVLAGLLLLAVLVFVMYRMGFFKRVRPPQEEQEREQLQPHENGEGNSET
T2 sequence (P18084 24-799, form in doubt, chain 2 of 2): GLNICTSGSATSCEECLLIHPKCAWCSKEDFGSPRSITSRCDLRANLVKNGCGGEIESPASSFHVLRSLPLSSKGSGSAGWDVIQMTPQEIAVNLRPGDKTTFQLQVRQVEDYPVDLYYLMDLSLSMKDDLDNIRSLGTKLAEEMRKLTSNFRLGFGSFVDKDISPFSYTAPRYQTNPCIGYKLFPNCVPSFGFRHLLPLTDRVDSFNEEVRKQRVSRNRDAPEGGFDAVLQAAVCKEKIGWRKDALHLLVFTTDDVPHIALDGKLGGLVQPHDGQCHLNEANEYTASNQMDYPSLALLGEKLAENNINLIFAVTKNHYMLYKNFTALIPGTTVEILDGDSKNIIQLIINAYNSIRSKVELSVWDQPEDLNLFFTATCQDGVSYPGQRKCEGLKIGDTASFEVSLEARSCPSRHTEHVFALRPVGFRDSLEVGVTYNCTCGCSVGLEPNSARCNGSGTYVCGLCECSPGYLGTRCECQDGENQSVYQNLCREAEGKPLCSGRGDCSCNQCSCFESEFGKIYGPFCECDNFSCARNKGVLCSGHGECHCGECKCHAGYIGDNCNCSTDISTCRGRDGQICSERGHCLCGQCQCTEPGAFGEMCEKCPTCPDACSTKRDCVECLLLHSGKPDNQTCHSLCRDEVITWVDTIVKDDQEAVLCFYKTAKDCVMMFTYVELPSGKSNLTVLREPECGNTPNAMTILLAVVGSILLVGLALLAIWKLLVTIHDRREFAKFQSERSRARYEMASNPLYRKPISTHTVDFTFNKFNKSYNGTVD
Protocol: as §1

T1 sequence (P06756 31-1048, form in doubt, chain 1 of 2): as the sequence (P06756 31-1048, form in doubt, chain 1 of 2) above
T1 sequence (P05106 27-788, form in doubt, chain 2 of 2): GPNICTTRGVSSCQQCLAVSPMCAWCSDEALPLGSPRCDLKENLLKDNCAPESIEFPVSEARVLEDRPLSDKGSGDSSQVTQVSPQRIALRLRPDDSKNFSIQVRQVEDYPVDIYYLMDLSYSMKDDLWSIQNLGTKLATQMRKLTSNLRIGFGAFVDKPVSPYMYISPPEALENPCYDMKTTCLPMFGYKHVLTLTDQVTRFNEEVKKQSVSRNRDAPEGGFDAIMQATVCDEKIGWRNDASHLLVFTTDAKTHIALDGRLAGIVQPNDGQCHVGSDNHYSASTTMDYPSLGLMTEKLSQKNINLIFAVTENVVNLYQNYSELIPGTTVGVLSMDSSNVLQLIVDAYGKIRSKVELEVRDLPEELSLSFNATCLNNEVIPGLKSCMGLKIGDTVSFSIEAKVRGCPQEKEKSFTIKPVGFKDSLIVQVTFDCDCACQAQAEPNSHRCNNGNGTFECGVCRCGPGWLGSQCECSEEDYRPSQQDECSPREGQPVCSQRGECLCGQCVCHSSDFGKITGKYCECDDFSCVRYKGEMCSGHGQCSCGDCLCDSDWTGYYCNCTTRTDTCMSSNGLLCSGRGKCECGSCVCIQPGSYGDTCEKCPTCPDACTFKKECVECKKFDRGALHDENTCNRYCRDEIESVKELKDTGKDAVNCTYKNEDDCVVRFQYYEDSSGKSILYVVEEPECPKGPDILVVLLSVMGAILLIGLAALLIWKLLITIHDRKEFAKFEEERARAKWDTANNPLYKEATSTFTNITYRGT

Molecule	Inhib (%) R-SMC (50 µg/ml) [1] [%]	fold higher binding affinity (KD) than D12 [2] [fold]	Kd [3] [pM]	Kd [4] [pM]
murine monoclonal antibody LM609	43			
murine monoclonal antibody B9 (antibody, mouse IgG1, V domains shown, also called mAb B9; Murine B9) VH: QVQLQQSGAELMKPGASVKISCKATGYTFSSYWIEWVKQRPGHGLEWIGEILPRSGNTNYNEKFKGKATFTAETSSNTAYMQLSSLTPEDSAVYYCSSRGVRGSMDYWGQGTSVTVSS VL: DIQMTQTTSSLSASLGDRVTITCRSSQDISNFLNWYQQKPDGTVKLLIYYTSTLHSGVPSRFSGSGSGTDYSLTISNLEQEDIATYFCQQGNTLPWTFGGGTNLEIKR		~5	290	110
murine monoclonal antibody D12 (antibody, V domains shown) VH: EIQLQQSGPEVVKPGASVKVSCKASGYAFTSYNMYWVKQSHGKSLEWIGYIDPYNGDTFYNQKFKGKATLTVDKSSSTAYMHLNSLTSEDSAVFYCARQNYGSFAYWGQGTLVTVSA VL: DIVLTQSPATLSVTPGDSVSLSCRASQSISNHLHWYQQRSHESPRLLIKYASQSISGIPSRFRGSGSGTDFTLNINILETEDFGMYFCQQSNSWPFTFGSGTNLEIKR	66		1300	

— patent US20030004317A1 (GlaxoSmithKline, published 2003)
